Test results: US20060253917A1 (published 2006)
Ends that are not written are not given here.

T1: OsGF14-c aa 1-150 (Oryza sativa, UniProt Q6ZKC0 1-150)
T1 construct: bait, Gal4 DBD fusion; also called PN12464; O. sativa 14-3-3 Protein Homolog GF14-c
T1 sequence: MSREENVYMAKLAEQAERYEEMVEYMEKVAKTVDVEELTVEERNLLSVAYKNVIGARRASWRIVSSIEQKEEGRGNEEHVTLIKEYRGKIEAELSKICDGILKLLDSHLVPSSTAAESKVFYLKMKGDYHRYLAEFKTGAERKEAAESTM

T2: OsERP (PN20696) aa 50-145 (Oryza sativa, UniProt Q0JBH9 50-144)
T2 construct: bait, Gal4 DBD fusion; also called Elicitor responsive protein
T2 sequence: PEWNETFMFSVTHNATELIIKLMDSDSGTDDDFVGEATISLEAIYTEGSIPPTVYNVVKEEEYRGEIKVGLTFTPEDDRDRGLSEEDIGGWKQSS

T3: OsCS aa 316-583 (Oryza sativa, UniProt A2Y0X2 316-583)
T3 construct: bait, Gal4 DBD fusion; also called PN19707
T3 sequence: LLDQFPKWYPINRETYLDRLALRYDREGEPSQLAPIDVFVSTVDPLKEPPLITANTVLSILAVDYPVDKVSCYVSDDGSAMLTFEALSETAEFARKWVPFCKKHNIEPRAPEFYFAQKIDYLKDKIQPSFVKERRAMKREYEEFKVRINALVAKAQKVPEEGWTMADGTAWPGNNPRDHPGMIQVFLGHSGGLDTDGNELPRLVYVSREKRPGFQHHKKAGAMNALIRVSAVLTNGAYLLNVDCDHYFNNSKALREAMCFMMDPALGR

B1: OsPN22866 aa 95-305 (other)
chain: LLALSDDLVKSNVFIEGVSHKIRRQIEELERAGGVESGALTVDGVPVDTYLTRFVWDEGKYPTMSPLKEIAGSIQSQVSKIEDDMKVRGAEYNNVRSQLNAINRKQTGSLAVRDLSNLVKPEDMVTSEHLVTLLAVVPQYSQKDWLSSYESLDTFVVPRSSKKLYEDNEYALYTVTLFAKVVDNFKVRAREKGFQVRDFEYSSEAQESRKE
notes: prey, AD fusion; also called Novel Protein PN22866, Fragment, Similar to A. Thaliana Vacuolar ATP Synthase Subunit C
B2: OsPN30846 aa 1-266 (other)
chain: APRRPSTFLNAVALGNVGAGKSAVLNSLIGHPVLPTGENGATRAPIVVDLQRDPGLSSKSIVLQIDSKSQRVSASSLRHSLQDRLSKGASSGSSRGRVEGINLKLRTSTAPPLKLVDLPGIDQRAVDDPMINEYAGHNDAILLVVIPAMQAADVASSRALRLAKDIDADGTRTVGVISKVDQAEGDAKTIACVQALLLNKGPKNLPDIEWVALIGQSVAIASAQAAGSENSLETAWNAEAETLRSILTGAPKSKLGRIALVDTIAK
notes: prey, AD fusion; also called Novel Protein PN30846
B3: OsPN29982 aa 201-300 (other)
chain: SPVVDNADVTETKPQTELPVHVMCAEWSSQKRLKKVQLETLERVYSRTKRPTNTMISSIVQVTSLPRKTIVKWFEDRREQDGVPDHRVAFKRSLSETIAS
notes: prey, AD fusion; also called Novel Protein PN29982
B4: OsPN23059 aa 193-333 (other)
chain: DGIDYAAVTVQLPGGERVPFLFTIKNLVATGKPESFGGPFLVPSYRGSSFLDPKGRGGSTGYDNAVALPAGGRGDEEELAKENVKNASSSTGNITLSVTKSKPETGEVIGVFESVQPSDTDLGAKVPKDVKIQGVWYAQLE
notes: prey, AD fusion; also called OsContig4331, O. sativa Putative 33 kDa Oxygen-Evolving Protein of Photosystem II
B5: OsPN23059 aa 90-169 (other)
chain: PRRLTFDEIQSKTYMEVKGTGTANQCPTVEGGVDSFAFKAGKYNMKKFCLEPTSFTVKAEGVAKNAPPEFQKTKLMTRLT
notes: prey, AD fusion; also called OsContig4331
B6: OsBAB61062 aa 463-511 (other)
chain: AIDTYDDHRMAMAFSLAACADVPVTIRDPGCTRKTFPNYFDVLSTFVRN
modifications: not fully specified; cysteine pairing not given here
notes: prey, AD fusion; also called PN22844; O. sativa 3-Phosphoshikimate 1-carboxyvinyltransferase (EPSP Synthase)
B7: OsPN22858 aa 27-154 (other)
chain: DKPTDGFSSIDEAIGALHEGKFVIAVDDESGDNEGDLVMAATLADPESIAFMIRNGSGIISVGMKEEDLTRLMIPMMSPIAEIEDISAAASTVTVDARVGISTGVSAADRAKTIFTLASPDSKPTDLR
notes: prey, AD fusion; also called Novel Protein 22858, Fragment, similar to Arabidopsis GTP Cyclohydrolase II
B8: OsRCAA1 aa 68-210 (other)
chain: DISDDQQDITRGKGFVDSLFQAPTGDGTHEAVLSSYEYLSQGLRTYDFDNTMGGFYIAPAFMDKLVVHISKNFMTLPNIKVPLILGIWGGKGQGKSFQCELVFAKMGINPIMMSAGELESGNAGEPAKLIRQRYREAADIIKK
notes: prey, AD fusion; also called PN19842; O. sativa Ribulose Bisphosphate Carboxylase/Oxygenase Activase, Large Isoform A1
B9: OsAAB46718 aa 82-126 (other)
chain: SPEEWSPTGDTYVGGTTGLLIWAVTLAGLLGGGALLVYNTSALAG
modifications: not fully specified
notes: prey, AD fusion; also called PN22840; O. sativa Photosystem II 10 kDa Polypeptide
B10: OsBAA02730 aa 206-269 (other)
chain: QDNGLVPIVEPEILLDGEHGIDRTFEVAQKVWAETFFYMAENNVMFEGILLKPSMVTPGAECKD
notes: prey, AD fusion; also called PN22832; O. sativa Fructose-Bisphosphate Aldolase, Chloroplast Precursor
B11: OsPN22874 aa 1-88 (other)
chain: GTNPGFRVGEIRLSNRDIYFGTLLGNTPEGSGRYVWSDGCTYDGEWRRGMRHGQGKTMWPSGATYEGEYSGGYIYGEGTYTGSDNIVY
notes: prey, AD fusion; also called Novel Protein 22874, Fragment, similar to Arabidopsis Putative Phosphatidylinositol-4-phosphate 5-kinase
B12: OsPN23061 aa 94-203 (other)
chain: VITWTSPKEQVFEMPTGGAAIMREGPNLLKLARKEQCLALGTRLRSKYKINYQFYRVFPNGEVQYLHPKDGVYPEKVNAGRQGVGQNFRSIGKNVSPIEVKFTGKNVFDI
notes: prey, AD fusion; also called Hypothetical Protein OsContig3864, Similar to H. vulgare Photosystem I Reaction Center Subunit II, Chloroplast Precursor
B13: OsPN30974 aa 38-178 (other)
chain: GGYDHPGLIPGLPDEISLQILARMPRMGYLNAKMVSRSWKAAITGVELYRVRKELGVSEEWLYMLTKSDDGKLVWNAFDPVCGQWQRLPLMPGISHGGECKRGIPGLWLGDLLSAGIRVSDVIRGWLGQRDSLDRLPFCGC
notes: prey, AD fusion; also called Novel Protein PN30974
B14: PN30868 aa 167-336 (other)
chain: YNELAQLRAGKSSKSKLLIAKFKSPKSLNGWEVDQGSYFPNTFASRFDEGIDASFDFSEAGQAVFSGFVFTRGGYVEISKRLSLPLGSTLDRYDGLLFSVGGNGRSYVVILETGPLADTSQSKKYFARMTTKVGFCRVRVPFSAFRPVNPQDPPLDPFLVHTLTIRFEPK
notes: prey, AD fusion
B15: PN30843 aa 164-221 (other)
chain: RALQNFTAEELLDGGEKQYQCQRCRKKVVAKKKFTIDKAPYVLTIHLKRFSPFNPREK
modifications: cysteine pairing not given here; also: AD fusion
notes: prey, AD fusion; also called Ubiquitin specific protease-like
B16: PN30857 aa 1-148 (other)
chain: QDTRPLQAQRRRHGGGPQDRQREPSQGDFLRRQREEHPGGEEDRAPHGAGGHAAAGEGRGPRAGEHPQHQGGAAGAVGGGREGGGRAHLLRPRRHRDIGDRVGHTYCLSRLRRIAQNEQPSIHPCPSLAGQVIIRWEFRIGRDNNTFQ
notes: prey, AD fusion; also called Novel protein PN30857
B17: PN30845 aa 1-64 (other)
chain: GDQGRTYLFRVSNVGVKTSVNVRIQGHSLRLVEVEGTHPVQNVYDSLDVHVGQSVAFLVTLDKA
notes: prey, AD fusion; also called Pectinesterase-like
B18: PN29984 aa 5-41 (other)
chain: SSGTTSRPTASRTQQTKGRLTVTISLKAYSPGRTRSG
notes: prey, AD fusion; also called Novel Protein PN29984
B19: PN29984 aa 1-38 (other)
chain: APSSSSGTTSRPTASRTQQTKGRLTVTISLKAYSPGRT
notes: as for B18
B20: PN30844 aa 1-64 (other)
chain: VAVRKKETRDGAMQTMPSRVQQGAADFEETLFVRCHLYCSGGAGTGKPLRFEPRPFLLSAVAVE
notes: prey, AD fusion; also called Novel protein PN30844
B21: PN30870 aa 1-446 (other)
chain: GEEDEHPHEGRAGVERRRQHVVVLLPPPLAVLEHEVVEDGARDEPARDVGRRRRRHPGEPVGDDGDVDERDPLLLRERPAEQPHRHGQHGAGEEQPHQVAVQAVAAEQPGGADEPPDHRRVERDPVLGARPRAVRVQRLHVADVVDAAQHPPRHRQVHHAGDHRAHQLRRVHAPRRDLHVVPQLEVREERQRVHRADPPVDLEQQVRDRLPRQRVPDHELRDDVVPRLLVGGGLDDADGEGDDEGEGEGEEHPPPRQLHLLPVHERHDQRHGDAADEQHEEPPLRHLLVPPHQLRVHVHLRRRGAHRRPALPPDVPAVEQRHVHDRRREPQEPGPDGDGEQRAQVQLPVALVRRHVEVELPREHLGGVVLLPGRREQLVGEDWELPRVERVELPVAERHDEVDEHDEARGGVGDGRPRRHQRAPVVRRDAGPVQCEGADAEAVVAG
notes: prey, AD fusion; also called Isp-4 like
B22: PN29983 aa 1-131 (other)
chain: GVETVVTDTAGNKVVVTGAADAAELKERIEARTKKAVQIVSAGAGPPPKKDKEEKKDKDKKGGGDDKKAEKEKGGGGGDKKAEKEKGGGDKPKEEKKAKEPKEETVTLKIRLHCEGCIDRIKRRICKIKGG
notes: prey, AD fusion; also called Novel protein PN29983
B23: OsAAB53810 aa 6-145 (other)
chain: IGPWGGNGGSAQDISVPPKKLLGVTIYSSDAIRSIAFNYIGVDGQEYAIGPWGGGESTSTEIKLGSSEQIKEISGTHGPVYDLADIVTYLKIVTSANNTYEAGVPNGKEFSIPLQDSGHVVGFFGRSGTLIDAIGIYVHP
notes: prey, AD fusion; also called PN29086; O. sativa salT Gene Product
B24: OsPN29077 aa 1-242 (other)
chain: VEAQKKIEAAIRQKGIDENWEAALEHNPEAFARVVMLYVDMEVNGVPLKAFVDSGAQSTIISKSCAERCGLLRLLDQRYRGVAIGVGQSEILGRIHVAPIKIGHVFYPCSFTVLDAPNMEFLFGLDMLRKHQCIIDLKDNVLRVGGGEVSVPFLQEKDIPSHIRDEEKLSKLASLSQGAAGESSTAREKTPDAPPRAPTTGAPAVNPPQPQGGGDFEAKVTKLVELGFDRASVIQALKLFNG
notes: prey, AD fusion; also called Novel Protein PN29077, Fragment, Similar to A. thaliana DNA-Damage Inducible Protein DDI1-Like
B25: OsPN29076 aa 1-187 (other)
chain: ERDISMVNSYPPSAFDCKGWNSASIFIYESDEEIQCLLDWLRDYDPREKELKDSILQWQRHFCHQSSSPLVDPPISGPKGEQLMELPNTKAAVILEQKYGLQLDQDTSDLPKKRGKKIKLSSEDRTYRCDCLEPVWPSRYHCLTCHETYLISTEFEGHNDGKCSKIHQSPDESRENDEPKVKVTKSD
notes: prey, AD fusion; also called Novel Protein PN29076, Fragment
B26: OsPIP2A aa 123-290 (other)
chain: RKVSLVRAILYIVAQCLGAICGVGLVNAFPNAYFNRYGGGANTLAAGYSKGTGLAAEIIGTFVLVYTVFSATDPKRNARDSHVPVLAPLPIGFAVFMVHLATIPITGTGINPARSIGAAVIFNNEKAWHNHWIFWVGPFVGAAIAAFYHQYILRAGAIKALGSFRSNA
notes: prey, AD fusion; also called PN29098; O. sativa Aquaporin

Each binder was assayed against T1, OsGF14-c aa 1-150 (assay: Y2H; input trait library).
Summary of the method: (§1)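 A rice prey library, either the input trait or the output trait library, was screened with a bait clone encoding a defined amino-acid fragment of a rice protein. Screening used an automated, high-throughput yeast two-hybrid assay provided by Myriad Genetics Inc. (Salt Lake City, Utah). Retrieved prey clones had their encoding sequences compared by BLAST against databases so the interacting proteins could be identified.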

| binding result | Binder |
| --- | --- |
| binds | B1 |
| binds | B2 |
| binds | B3 |
| binds | B4 |
| binds | B5 |
| binds | B6 |
| binds | B7 |
| binds | B8 |
| binds | B9 |
| binds | B10 |
| binds | B11 |
| binds | B12 |
| binds | B13 |

The binders below were run against T2, OsERP (PN20696) aa 50-145 (assay: Y2H; input trait library).
Summary of the method: as §1

| binding result | Binder |
| --- | --- |
| binds | B14 |
| binds | B15 |
| binds | B16 |
| binds | B17 |
| binds | B18 |
| binds | B19 |
| binds | B20 |
| binds | B21 |
| binds | B22 |

What follows are binders tested against T3, OsCS aa 316-583 (assay: Y2H; output trait library).
Summary of the method: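 The values record whether an interaction was detected. In an automated, high-throughput yeast two-hybrid screen from Myriad Genetics Inc., rice protein fragments defined by amino-acid range were used as bait against rice prey clone libraries. Full-length genes were identified by BLAST comparison of the sequences encoding the interacting prey fragments against databases.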

| binding result | Binder |
| --- | --- |
| binds | B23 |
| binds | B24 |
| binds | B25 |
| binds | B26 |
